In assay [1] the target is T1, 人PSMA ECD-AFH (可溶性人PSMA ECD，重组二聚体PSMA ECD) (human, UniProt Q04609 44-750).
T1 construct: Expressed in HEK-293, IMAC then SEC; the dimer fraction was used; also called TSC033; HuPSMA-AFH
Briefly: SPR Biacore T200, scFv-Fc captured by anti-human IgG, dimeric PSMA ECD as analyte. For orientation: In SPR one partner is held on a chip, and binding of the other changes the refractive index at the surface.

For assay [2], the target named is T2, 全长食蟹猴PSMA (cynomolgus monkey, UniProt Q04609 1-750 (human entry)).
T2 construct: On transfected CHO cells; also called TSC308; cynoPSMA
T2 chain: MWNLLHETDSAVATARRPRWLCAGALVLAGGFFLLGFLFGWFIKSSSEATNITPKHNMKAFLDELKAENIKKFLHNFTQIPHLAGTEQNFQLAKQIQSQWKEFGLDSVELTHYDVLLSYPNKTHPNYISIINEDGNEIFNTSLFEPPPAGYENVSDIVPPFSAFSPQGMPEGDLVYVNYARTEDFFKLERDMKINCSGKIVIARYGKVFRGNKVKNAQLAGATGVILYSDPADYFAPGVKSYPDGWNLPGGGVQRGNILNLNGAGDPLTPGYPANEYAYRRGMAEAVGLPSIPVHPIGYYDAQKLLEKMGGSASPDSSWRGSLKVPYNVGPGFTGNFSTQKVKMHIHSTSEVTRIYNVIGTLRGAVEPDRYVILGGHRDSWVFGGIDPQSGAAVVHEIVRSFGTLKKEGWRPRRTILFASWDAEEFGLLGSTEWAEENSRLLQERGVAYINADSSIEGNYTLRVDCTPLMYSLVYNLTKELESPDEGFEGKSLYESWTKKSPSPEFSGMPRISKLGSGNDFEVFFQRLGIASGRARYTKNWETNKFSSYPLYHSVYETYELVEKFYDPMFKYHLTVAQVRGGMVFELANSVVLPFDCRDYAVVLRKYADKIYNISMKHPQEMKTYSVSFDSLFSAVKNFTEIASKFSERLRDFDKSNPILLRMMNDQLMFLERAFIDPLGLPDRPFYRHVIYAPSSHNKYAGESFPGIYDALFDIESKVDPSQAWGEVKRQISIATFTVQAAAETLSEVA
In words: MSD live-cell ELISA on CHOK1SV/cynoPSMA cells.

Assay [3] concerns the target T1, 人PSMA ECD-AFH (可溶性人PSMA ECD，重组二聚体PSMA …). Briefly: SPR Biacore, dimeric PSMA ECD.
In assay [4] the target is T3, 人CD3ε (TCR/CD3复合物，Jurkat细胞) (human, UniProt P07766 23-207).
T3 construct: whole, on cells; The other chains of the TCR/CD3 complex are present on the cells; also called CD3(+) Jurkat
T3 sequence (P07766 23-207): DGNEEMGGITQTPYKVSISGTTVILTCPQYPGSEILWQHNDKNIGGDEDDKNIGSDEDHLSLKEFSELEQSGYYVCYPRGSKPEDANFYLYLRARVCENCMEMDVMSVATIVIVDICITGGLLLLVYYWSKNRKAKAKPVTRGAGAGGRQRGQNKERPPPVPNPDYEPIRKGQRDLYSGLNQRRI
In words: flow cytometry on Jurkat cells, domain within anti-TA x anti-CD3ε constructs. On the technique in general: In flow cytometry, cells or beads pass a laser one at a time.

T1 sequence (Q04609 other isoform, or with tags, fused parts or gaps): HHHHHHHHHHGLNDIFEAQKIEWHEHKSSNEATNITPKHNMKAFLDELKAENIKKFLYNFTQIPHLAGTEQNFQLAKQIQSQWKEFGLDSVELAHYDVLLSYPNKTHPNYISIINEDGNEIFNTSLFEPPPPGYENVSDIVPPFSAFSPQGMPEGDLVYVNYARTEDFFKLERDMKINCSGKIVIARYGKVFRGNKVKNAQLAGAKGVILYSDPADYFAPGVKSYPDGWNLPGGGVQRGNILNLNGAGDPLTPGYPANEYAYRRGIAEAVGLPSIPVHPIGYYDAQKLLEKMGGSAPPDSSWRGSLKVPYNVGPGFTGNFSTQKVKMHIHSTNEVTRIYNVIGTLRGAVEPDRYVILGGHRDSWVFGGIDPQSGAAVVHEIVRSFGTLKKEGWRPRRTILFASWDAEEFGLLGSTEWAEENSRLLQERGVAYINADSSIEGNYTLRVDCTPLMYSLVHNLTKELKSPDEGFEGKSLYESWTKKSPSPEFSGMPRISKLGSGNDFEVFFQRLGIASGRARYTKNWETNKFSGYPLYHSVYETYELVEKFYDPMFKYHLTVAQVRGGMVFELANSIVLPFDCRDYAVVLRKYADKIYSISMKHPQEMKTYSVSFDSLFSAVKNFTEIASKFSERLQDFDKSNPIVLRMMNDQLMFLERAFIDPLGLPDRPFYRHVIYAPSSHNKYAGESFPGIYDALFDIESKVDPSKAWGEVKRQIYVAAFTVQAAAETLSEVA

B1: PSMA01012 (Fc fusion)
VH: QVQLVQSGAEVKKPGASVKVSCKASGYTFTDYYMHWVRQAPGQGLEWMGYFNPYNDYTRYAQKFQGRVTMTRDTSISTAYMELSSLRSDDTAVYYCARSDGYYDAMDYWGQGTTVTVSS
VL: DIQMTQSPSAMSASVGDRVTITCRASKSISKYLAWFQQKPGKVPKLRIHSGSTLQSGVPSRFSGSGSGTEFTLTISSLQPEDFATYYCQQHIEYPWTFGQGTKVEIKR
notes: Monospecific bivalent scFv-Fc, scFv in VL-VH orientation; also called TSC189 (结合结构域); 亲本构建体PSMA01012
Take B1: the binding result in assay [1] is “binds”.

B2: PSMA01023 (Fc fusion)
chain: DIQMTQSPSTLSASVGDRVTITCRASKSISKYLAWYQQKPGKAPKLLIHSGSSLESGVPSRFSGSGSGTEFTLTISSLQPDDFATYYCQQHIEYPWTFGQGTKVEIKGGGGSGGGGSGGGGSGGGGSQVQLVQSGAEVKKPGASVKVSCKASGYTFTDYYMHWVRQAPGQGLEWMGYFNPYNDYTRYAQKFQGRVTMTRDTSTSTVYMELSSLRSEDTAVYYCARSDGYYDAMDYWGQGTTVTVSSSEPKSSDKTHTCPPCPAPEAAGAPSVFLFPPKPKDTLMISRTPEVTCVVVDVSHEDPEVKFNWYVDGVEVHNAKTKPREEQYNSTYRVVSVLTVLHQDWLNGKEYKCAVSNKALPAPIEKTISKAKGQPREPQVYTLPPSRDELTKNQVSLTCLVKGFYPSDIAVEWESNGQPENNYKTTPPVLDSDGSFFLYSKLTVDKSRWQQGNVFSCSVMHEALHNHYTQKSLSLSPGK
notes: Monospecific bivalent anti-PSMA scFv-Fc, scFv in VL-VH orientation
By Kd is commonly meant the equilibrium constant for the complex coming apart. Higher therefore signals lower affinity. As for B2, in assay [2], the binding result was “binds”. The molecule also returned a Kd in assay [3] of 40 nM.

B3: CRIS7H16 (scFv, V domains shown)
VH: QVQLVQSGAEVKKPGASVKVSCKASGYTFTRSTMHWVRQAPGQGLEWIGYINPSSAYTNYAQKFQGRVTLTADKSTSTAYMELSSLRSEDTAVYYCASPQVHYDYNGFPYWGQGTLVTVSS
VL: DIQMTQSPSSLSASVGDRVTITCRASSSVSYMNWYQQKPGKAPKRWIYDSSKLASGVPSRFSGSGSGTDFTLTISSLQPEDFATYYCQQWSRNPPTFGQGTKVEIK
notes: also called H16 CD3结合结构域
For B3, the binding result in assay [4] is on record as “binds”.
